According to IntAct's records for PubMed 21471202:

B1: Low-density lipoprotein receptor-related protein 4 (Homo sapiens), O75096 (parent)
chain: MRRQWGALLLGALLCAHGLASSPECACGRSHFTCAVSALGECTCIPAQWQCDGDNDCGDHSDEDGCILPTCSPLDFHCDNGKCIRRSWVCDGDNDCEDDSDEQDCPPRECEEDEFPCQNGYCIRSLWHCDGDNDCGDNSDEQCDMRKCSDKEFRCSDGSCIAEHWYCDGDTDCKDGSDEENCPSAVPAPPCNLEEFQCAYGRCILDIYHCDGDDDCGDWSDESDCSSHQPCRSGEFMCDSGLCINAGWRCDGDADCDDQSDERNCTTSMCTAEQFRCHSGRCVRLSWRCDGEDDCADNSDEENCENTGSPQCALDQFLCWNGRCIGQRKLCNGVNDCGDNSDESPQQNCRPRTGEENCNVNNGGCAQKCQMVRGAVQCTCHTGYRLTEDGHTCQDVNECAEEGYCSQGCTNSEGAFQCWCETGYELRPDRRSCKALGPEPVLLFANRIDIRQVLPHRSEYTLLLNNLENAIALDFHHRRELVFWSDVTLDRILRANLNGSNVEEVVSTGLESPGGLAVDWVHDKLYWTDSGTSRIEVANLDGAHRKVLLWQNLEKPRAIALHPMEGTIYWTDWGNTPRIEASSMDGSGRRIIADTHLFWPNGLTIDYAGRRMYWVDAKHHVIERANLDGSHRKAVISQGLPHPFAITVFEDSLYWTDWHTKSINSANKFTGKNQEIIRNKLHFPMDIHTLHPQRQPAGKNRCGDNNGGCTHLCLPSGQNYTCACPTGFRKISSHACAQSLDKFLLFARRMDIRRISFDTEDLSDDVIPLADVRSAVALDWDSRDDHVYWTDVSTDTISRAKWDGTGQEVVVDTSLESPAGLAIDWVTNKLYWTDAGTDRIEVANTDGSMRTVLIWENLDRPRDIVVEPMGGYMYWTDWGASPKIERAGMDASGRQVIISSNLTWPNGLAIDYGSQRLYWADAGMKTIEFAGLDGSKRKVLIGSQLPHPFGLTLYGERIYWTDWQTKSIQSADRLTGLDRETLQENLENLMDIHVFHRRRPPVSTPCAMENGGCSHLCLRSPNPSGFSCTCPTGINLLSDGKTCSPGMNSFLIFARRIDIRMVSLDIPYFADVVVPINITMKNTIAIGVDPQEGKVYWSDSTLHRISRANLDGSQHEDIITTGLQTTDGLAVDAIGRKVYWTDTGTNRIEVGNLDGSMRKVLVWQNLDSPRAIVLYHEMGFMYWTDWGENAKLERSGMDGSDRAVLINNNLGWPNGLTVDKASSQLLWADAHTERIEAADLNGANRHTLVSPVQHPYGLTLLDSYIYWTDWQTRSIHRADKGTGSNVILVRSNLPGLMDMQAVDRAQPLGFNKCGSRNGGCSHLCLPRPSGFSCACPTGIQLKGDGKTCDPSPETYLLFSSRGSIRRISLDTSDHTDVHVPVPELNNVISLDYDSVDGKVYYTDVFLDVIRRADLNGSNMETVIGRGLKTTDGLAVDWVARNLYWTDTGRNTIEASRLDGSCRKVLINNSLDEPRAIAVFPRKGYLFWTDWGHIAKIERANLDGSERKVLINTDLGWPNGLTLDYDTRRIYWVDAHLDRIESADLNGKLRQVLVSHVSHPFALTQQDRWIYWTDWQTKSIQRVDKYSGRNKETVLANVEGLMDIIVVSPQRQTGTNACGVNNGGCTHLCFARASDFVCACPDEPDSRPCSLVPGLVPPAPRATGMSEKSPVLPNTPPTTLYSSTTRTRTSLEEVEGRCSERDARLGLCARSNDAVPAAPGEGLHISYAIGGLLSILLILVVIAALMLYRHKKSKFTDPGMGNLTYSNPSYRTSTQEVKIEAIPKPAMYNQLCYKKEGGPDHNYTKEKIKIVEGICLLSGDDAEWDDLKQLRSSRGGLLRDHVCMKTDTVSIQASSGSLDDTETEQLLQEEQSECSSVHTAATPERRGSLPDTGWKHERKLSSESQV

Variants of: B1
Conditions: with sost_human SOST

| effect of a mutation on the interaction | Variant |
| --- | --- |
| decreasing interaction | R1170W |
| decreasing interaction | W1186S |
